Earlier results as cited in publication PMC7650819.

Assays:
[1] = target: thrombin (human plasma) (Homo sapiens) (UniProt P00734+P00734); experiment: literature value; details: AIR; ABB: 50 mM Tris-HCl, 140 mM NaCl, 1 mM MgCl2, 1% BSA, 0.05% Triton X-100, pH 7.4, overnight at 4 °C; aptamers refolded in 5 mM Tris-HCl, 1 M NaCl, 0.5 mM …
TGF-β1 (Homo sapiens) = TGF-β1 (Homo sapiens) (UniProt P01137); experiment: literature value; details: DNA with phosphorothioates at positions marked by asterisks: CGCTCGGCTTCACGAGATTCGTGTC*GTTGTGTC*C*TGTA*C*C*C*GC*C*TTGA*C*C*A*GTC*A*C*TC*TA*GA*GC*A*TC*C*GGA*C*TG …; AIR; ABB: 50 mM Tris-HCl, 140 mM NaCl, 1 mM MgCl2, 1% BSA, 0.05% Triton X-100, pH 7.4, overnight at 4 °C; aptamers refolded in 5 mM Tris-HCl, 1 M NaCl, 0.5 mM E
TGF-β1 (Homo sapiens), sequence (P01137 279-390): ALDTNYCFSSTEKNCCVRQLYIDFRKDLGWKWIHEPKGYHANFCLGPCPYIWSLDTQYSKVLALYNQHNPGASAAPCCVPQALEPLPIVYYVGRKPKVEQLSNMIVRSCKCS

Sequence	Kd [1] [µM]	Kd (TGF-β1 (Homo sapiens)) [µM]
TTTTTTTTTTTTTTTTTTTTGGTTGGTGTGGTTGG [Thrombin 15-mer aptamer]	0.1	–
TTTTTTTTTTTTTTTTTTTTCGCTCGGCTTCACGAGATTCGTGTCGTTGTGTCCTGTACCCGCCTTGACCAGTCACTCTAGAGCATCCGGACTG [TGF-β1 thioaptamer]	–	0.09
TTTTTTTTTTTTTTTTTTTTAGTCCGTGGTAGGGCAGGTTGGGGTGACT [Thrombin 29-mer aptamer]	0.0005	–
